This assay addresses T1, 161P2F10B variant 1 (human 161P2F10B), on the cell surface (human, UniProt O14638 1-875).
T1 construct: Cell surface pyrophosphatase/phosphodiesterase; also called 161P2F10B v.1; CD203c
Nature of the assay: flow cytometry on cells or ELISA on immobilized 161P2F10B.

B1: H16-1.80 (antibody, V domains shown)
VH: QVQLQESGPGLVKPSETLSLTCTVSGGSISSYYWSWIRQPPGKGLEWIGYVYFSGSTNYNPSLKSRVTISVDTSKNQFSLKLSSVTAADTAVYYCARATRDYYYYGMDVWGQGTTVTVSS
VL: DIQMTQSPSSLSASVGDRVTITCRTSHDISNYLNWYQQKPGKAPKLLIYAASSLQSGVPSRFSGSRSGTDFTLTISSLQPEDFATYYCQQTYSTLFTFGPGTKVDIKR
notes: also called Ha16-1.80; HA16-1.80
For the molecule B1, the binding result is on record as “binds”.

B2: H16-1.61.1 (antibody, V domains shown)
VH: EVQLVESGGGVVQPGRSLRLSCAASGFTFSSYGMHWVRQAPGKGLEWVAVIWYDGSNKYYADSVKGRFTISRDNSKNTLYLQMNSLRAEDTAVYYCARSRITIFGVVHYGMDVWGQGTTVTVSS
VL: DTQLTQSPSSLSASVGDRVTITCRASQSISSYLNWYQLKPGKAPKLLIYAASSLESGVPSRFSGSESGTDFTLTISSLQPEDFATYYCQQSYNSPITFGPGTKVDIKR
Regarding B2, the binding result is “binds”.

Source of the values: patent US20090022663A1 (published 2009).
